The values that follow come from article PMC7352912.

The target in the test is F-actin of ghost muscle fibres (rabbit (endogenous in m. psoas fibres)) (UniProt P68135). The test is described as follows: fluorescence intensity of labelled proteins bound in ghost muscle fibres; actin-Tpm-S1 complexes in ghost fibres; rigor (no nucleotide) or MgADP; with MgATP the ratio of S1 to actin was reduced. The following applies: for stoichiometry N: scale: actin per tropomyosin.

recombinant wild-type γ-tropomyosin (Tpm3.12) (natural protein), sequence (Q5KR47 whole entry): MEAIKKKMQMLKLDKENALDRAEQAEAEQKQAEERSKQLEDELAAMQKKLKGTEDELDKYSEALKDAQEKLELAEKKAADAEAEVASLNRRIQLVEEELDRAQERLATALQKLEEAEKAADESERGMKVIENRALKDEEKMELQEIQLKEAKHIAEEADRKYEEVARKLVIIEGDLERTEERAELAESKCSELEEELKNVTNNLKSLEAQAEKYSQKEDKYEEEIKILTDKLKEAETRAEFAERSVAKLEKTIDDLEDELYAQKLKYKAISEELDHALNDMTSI
myosin subfragment-1, sequence (P02602 whole entry, looked up, the tested form may be a part): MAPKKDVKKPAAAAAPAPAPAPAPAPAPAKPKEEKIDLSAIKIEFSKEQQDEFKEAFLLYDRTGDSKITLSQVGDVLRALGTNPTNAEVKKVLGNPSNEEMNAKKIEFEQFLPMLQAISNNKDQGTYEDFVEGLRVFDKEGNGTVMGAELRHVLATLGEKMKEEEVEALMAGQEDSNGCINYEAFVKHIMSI

With “E173A mutant γ-tropomyosin (Tpm3.12) (natural protein)”, the stoichiometry N (usually the number of molecules, sites or subunits per partner or assembly) came out at 7.

In the case of “myosin subfragment-1 (from UniProt P02602 1-192) (complex)”, the stoichiometry N (actin per S1 (molar ratio 1:2.4)) was determined as 2.4. For “recombinant wild-type γ-tropomyosin (Tpm3.12) (natural protein)”, the stoichiometry N came to 7.
